Measurements from patent US6428579B1, “Implantable prosthetic devices coated with bioactive molecules” (Brown University Research Foundation, priority 1999, dated 2002).

Test: Surface plasmon resonance of peptide adsorption on gold
Type: physicochemical
Settings: best fit of SPR spectra, Fresnel theory
Excerpt: Surface plasmon resonance (SPR) was produced when a beam of p-polarized laser light impinges onto the surface of a thin metal film. The light was coupled to the metal film through a prism which was mounted on a rotating turntable. At a particular angle of incidence the E-field of the laser light interacts with the surface bound free electrons of the metal film in such a way that a charge density wave was generated at the interface of the metal and air. This excitation results in a sharp reduction in the magnitude of the reflected light (measured with a photodiode). The angle at which this occurs together with the depth and half-width of the minimum were determined by the thickness and complex refractive index of the metal film. The magnitude of the evanescent field which arises from the charge density wave decays exponentially in the direction normal to the surface. […] By fitting the Fresnel equations, firstly to the date for the uncoated metal film, and then to the metal plus thin film, the thicknesses and complex refractive indices of the metal and peptide overlayer were determined. […] Another practical advantage of this method is that peptide chemistry can be determined in aqueous environments rather than the ultrahigh vacuums needed for other surface-sensitive techniques (e.g. ESCA). […]

Arg-Gly-Asp-Cys (RGDC; printed: Arg-Gly-Asp-Cys) [fibronectin related peptide, cysteine terminated]
Film thickness of peptide layer: 23-25 Å
